Test results as given in patent US20060147922A1 (published 2006).

Assays:
[1] = target: T1, EDDF2, central domain of EDD (aa 889-1877) (human, UniProt O95071 889-1877); experiment: GSTchk2-N pull-down of IVT EDD deletion mutants
T1 construct: In vitro translated, 35S-labelled; also called central third; central region of EDD
T1 sequence: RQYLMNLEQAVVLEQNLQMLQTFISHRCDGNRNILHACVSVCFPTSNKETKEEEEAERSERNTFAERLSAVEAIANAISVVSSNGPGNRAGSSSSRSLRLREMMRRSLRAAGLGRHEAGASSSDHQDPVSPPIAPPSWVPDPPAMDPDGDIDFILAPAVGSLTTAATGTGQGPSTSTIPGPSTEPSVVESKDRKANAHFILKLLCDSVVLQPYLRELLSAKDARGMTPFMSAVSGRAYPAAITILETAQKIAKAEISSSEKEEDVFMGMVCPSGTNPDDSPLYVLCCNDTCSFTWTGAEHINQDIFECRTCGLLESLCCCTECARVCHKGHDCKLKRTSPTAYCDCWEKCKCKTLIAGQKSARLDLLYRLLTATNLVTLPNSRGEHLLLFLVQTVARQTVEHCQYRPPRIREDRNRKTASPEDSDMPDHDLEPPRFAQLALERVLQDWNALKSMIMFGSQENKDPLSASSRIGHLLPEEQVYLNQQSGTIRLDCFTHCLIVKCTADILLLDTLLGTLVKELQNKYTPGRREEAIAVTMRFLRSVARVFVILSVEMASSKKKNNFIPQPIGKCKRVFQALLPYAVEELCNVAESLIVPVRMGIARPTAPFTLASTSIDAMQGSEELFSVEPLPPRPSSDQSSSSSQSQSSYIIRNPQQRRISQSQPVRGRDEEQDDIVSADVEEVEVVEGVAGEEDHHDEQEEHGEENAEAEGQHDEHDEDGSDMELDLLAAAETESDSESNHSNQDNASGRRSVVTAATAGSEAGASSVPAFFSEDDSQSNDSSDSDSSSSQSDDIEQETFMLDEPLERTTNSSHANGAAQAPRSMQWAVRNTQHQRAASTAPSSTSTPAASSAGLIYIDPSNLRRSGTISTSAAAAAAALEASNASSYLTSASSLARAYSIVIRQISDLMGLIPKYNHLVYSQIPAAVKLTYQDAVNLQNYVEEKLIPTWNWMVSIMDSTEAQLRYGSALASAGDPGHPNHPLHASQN

[2] = target: T2, EDDF3, carboxy domain of EDD (aa 1877-2799) (human, UniProt O95071 1877-2799); experiment: GSTchk2-N pull-down of IVT EDD deletion mutants
T2 construct: In vitro translated, 35S-labelled; also called carboxy third; carboxy terminal region of EDD
T2 sequence: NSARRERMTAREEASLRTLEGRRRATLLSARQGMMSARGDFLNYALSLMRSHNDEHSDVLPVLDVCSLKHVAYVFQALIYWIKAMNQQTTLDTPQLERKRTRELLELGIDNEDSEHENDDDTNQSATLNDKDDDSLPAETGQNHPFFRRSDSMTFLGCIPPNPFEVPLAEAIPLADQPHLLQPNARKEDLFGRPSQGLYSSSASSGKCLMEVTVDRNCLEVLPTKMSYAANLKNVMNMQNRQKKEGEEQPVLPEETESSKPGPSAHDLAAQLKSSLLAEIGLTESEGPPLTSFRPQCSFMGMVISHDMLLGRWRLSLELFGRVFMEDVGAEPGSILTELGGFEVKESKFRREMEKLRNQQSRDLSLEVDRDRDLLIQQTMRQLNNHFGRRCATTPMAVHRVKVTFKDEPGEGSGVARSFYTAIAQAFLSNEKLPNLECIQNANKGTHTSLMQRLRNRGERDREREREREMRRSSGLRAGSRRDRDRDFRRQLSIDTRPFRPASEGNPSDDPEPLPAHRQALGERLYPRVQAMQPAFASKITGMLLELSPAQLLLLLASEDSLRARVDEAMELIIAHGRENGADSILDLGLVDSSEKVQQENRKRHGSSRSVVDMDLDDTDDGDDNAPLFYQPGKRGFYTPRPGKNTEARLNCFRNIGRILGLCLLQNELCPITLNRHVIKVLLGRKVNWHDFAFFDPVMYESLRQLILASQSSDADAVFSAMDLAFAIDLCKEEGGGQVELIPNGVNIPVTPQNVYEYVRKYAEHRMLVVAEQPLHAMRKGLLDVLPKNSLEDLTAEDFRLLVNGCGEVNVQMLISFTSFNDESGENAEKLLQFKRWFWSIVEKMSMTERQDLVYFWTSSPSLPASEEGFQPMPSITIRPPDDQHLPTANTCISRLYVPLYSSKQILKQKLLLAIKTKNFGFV

binding result [1]: no binding
binding result [2]: no binding
B1: GSTchk2-N (GST fused to chk2 aa 1-225) (other)
chain: MSRESDVEAQQSHGSSACSQPHGSVTQSQGSSSQSQGISSSSTSTMPNSSQSSHSSSGTLSSLETVSTQELYSIPEDQEPEDQEPEEPTPAPWARLWALQDGFANLECVNDNYWFGRDKSCEYCFDEPLLKRTDKYRTYSKKHFRIFREVGPKNSYIAYIEDHSGNGTFVNTELVGKGKRRPLNNNSEIALSLSRNKVFVFFDLTVDDQSVYPKALRDEYIMSKT
notes: contains the SQ/TQ and FHA domains; also called GSTCHK2-N (WT); chk2 N-terminus; not shown: glutathione S-transferase (GST) fusion partner
